Experimental data taken from US7164008B2, “Isolated complexes of endotoxin and MD-2” (priority 2003, dated 2007).

Tested on: human airway epithelia
Experiment: Endotoxin responsiveness of primary human airway epithelia (HBD-2 mRNA real time PCR, NF-κB-luciferase)
Assay type: cell-based
Conditions: N. meningitidis LOS-sCD14 5 ng LOS/ml, 24 hr, HBD-2 real time PCR
Procedure: FIG. 6 depicts endotoxin responsiveness of well-differentiated primary cultures of human airway epithelia. Polarized epithelia were treated with NTHi LOS (100 ng/ml), sCD14 (100 ng/ml) and LBP (250 ng/ml) by apical application in a 50 μl volume. Twenty-four hours later, epithelia were harvested and analyzed for HBD-2 mRNA expression by real time PCR. As depicted in FIG. 6A, apical stimulation of airway epithelia with NTHi LOS induced little change in HBD-2 MRNA expression (2 epithelia/trial, n=3 different donors, * indicates p<0.05). In contrast, IL-1β markedly induces HBD-2 mRNA. FIG. 6B depicts the polarity of epithelial responses to IL-1β and NTHi LOS. […]
FIG. 9 depicts the effects of MD-2 complementation on endotoxin responsiveness in human airway epithelia. […] Fold increase in HBD-2 mRNA expression were quantified by real time PCR. […] NF-κB-luciferase activity was measured 24 hr following endotoxin treatment (n=5 epithelia/condition, * indicates p<0.05). […] 24 hr after endotoxin treatment, HBD-2 expression was quantified by real time PCR. […]
Well differentiated human airway epithelia were treated with N. meningitidis LOS-sCD14 (5 ng LOS/ml), with or without the addition of cell culture supernatants containing rMD-2. […] HBD-2 expression was quantified by real time PCR. […]
Real-time PCR was employed to detect human β-defensin-2 and MD-2 and to quantify changes in expression. […]

B1: wt MD-2: soluble polyhistidine-tagged recombinant wild-type MD-2 in conditioned insect cell culture medium (protein)
chain: QKQYWVCNSSDASISYTYCDKMQYPISINVNPCIELKRSKGLLHIFYIPRRDLKQLYFNLYITVNTMNLPKRKEVICRGSDDDYSFCRALKGETVNTTISFSFKGIKFSKGKYKCVVEAISGSPEEMLFCLEFVILHQPNSNHHHHHH
B1 was tested, and the “increase of response of human airway epithelial cultures to LOS-sCD14” value was ≥ 100 fold.
